Data on four molecules can be found in US20230049152A1 (Genentech, published 2023).

Assay [1] deals with T1, human CCR8 (human, UniProt P51685 1-355). The assay can be described thus: cell-based or functional assay.
For a further assay, the target named is T2, human CCR2 (human, UniProt P41597 1-374).
T2 construct: whole, on cells; transiently expressed on HEK293 cells
The assay can be described thus: flow cytometry, HEK293 with N-term FLAG-tagged human CCR2. The source says:
FIGS. 4A-4F depicts the binding data of hu.Ab3.H1L1 (FIG. 4A), hu.Ab4.H1L1 (FIG. 4B), and hu.Ab5.H1L1 (FIG. 4C), as well as the commercial anti-CCR8 mAbs murine anti-human CCR8 mAb 433H (BD Biosciences) (FIG. 4D), and murine anti-human CCR8 mAb L263G8 (Biolegend) (FIG. 4E), and the humanized anti-human Yoshida anti-CCR8 mAb (FIG. 4F), to HEK293 cells that were transiently transfected with N-term FLAG-tagged plasmids encoding for human GPCRs (CCR2, CCR3, CCR4, CCR5, CCR8, CXCR4, ACKR2, and ACKR4), hCCR8 constructs, or with a mock construct using transIT X2 (reagent:DNA=3:1).
(§1) To confirm the selectivity to CCR8, the binding of hu.Ab3.H1L1, hu.Ab4.H1L1, and hu.Ab5.H1L1, as well as the Yoshida humanized anti-human CCR8, murine anti-human CCR8 mAb L263G8 (Biolegend, Commercial Ab) and murine anti-human CCR8 mAb 433H (BD Biosciences, Commercial Ab), were characterized by flow cytometry on HEK293 cells that were transiently transfected with plasmids encoding for FLAG-tagged other related human GPCRs (CCR2-5, CXCR4, ACKR2, and ACKR4). Cell surface expression of each GPCR was confirmed by staining with an anti-FLAG antibody control. In particular, HEK293 cells were transfected with N-term FLAG-tagged human CCR2, CCR3, CCR4, CCR5, CXCR4, ACKR2, ACKR4, hCCR8 constructs, or with a Mock construct using transIT X2 (reagent:DNA=3:1) for 24 hours, and surface stained with various anti-hCCR8 monoclonal antibodies at 5 ug/ml, or rabbit anti-Flag pAb (Sigma) followed by AF647-anti-hIgG or AF647-anti-RbIgG respectively. Antibodies hu.Ab4.H1L1, and hu.Ab5.H1L1, only stained the hCCR8-containing cells, confirming their specificity to hCCR8. […] Thus, the CCR8 selective hu.Ab4.H1L1 and hu.Ab5.H1L1 antibodies with the best ADCC activities were carried forward.
(A flow cytometer gives signals particle by particle.)

The next assay addresses T3, human ACKR2 (human, UniProt O00590 1-384).
T3 construct: whole, on cells; transiently expressed on HEK293 cells
T3 sequence (looked up): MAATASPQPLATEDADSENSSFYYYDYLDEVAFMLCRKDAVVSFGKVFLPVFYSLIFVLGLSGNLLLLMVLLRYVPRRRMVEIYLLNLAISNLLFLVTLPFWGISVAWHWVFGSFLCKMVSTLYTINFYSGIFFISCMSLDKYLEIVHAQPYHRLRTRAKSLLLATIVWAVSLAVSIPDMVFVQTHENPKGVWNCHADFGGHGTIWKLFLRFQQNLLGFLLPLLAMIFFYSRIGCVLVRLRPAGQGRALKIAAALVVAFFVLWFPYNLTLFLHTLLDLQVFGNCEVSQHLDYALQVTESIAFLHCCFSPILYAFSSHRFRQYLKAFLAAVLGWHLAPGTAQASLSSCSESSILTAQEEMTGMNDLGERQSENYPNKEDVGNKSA
In words: flow cytometry, HEK293 with N-term FLAG-tagged human ACKR2, procedure of FIG. 4.
Description: as §1
(§2) To reconfirm that the Ab4 and Ab5 variants remained selective to CCR8 compared to the corresponding HIL1 variants, binding was analyzed by flow cytometry following the procedure as described for FIG. 4A and FIG. 4B. […]

For the next assay, the target named is T4, GST-FcgR3a.V158 (UniProt P08637 17-208, limits assumed).
T4 construct: Captured by anti-GST antibody on ELISA plate; also called FcgR3a.V158 protein; Fcgamma RIIIa V158; not shown: GST tag
T4 sequence (P08637 17-208 F176V limits assumed): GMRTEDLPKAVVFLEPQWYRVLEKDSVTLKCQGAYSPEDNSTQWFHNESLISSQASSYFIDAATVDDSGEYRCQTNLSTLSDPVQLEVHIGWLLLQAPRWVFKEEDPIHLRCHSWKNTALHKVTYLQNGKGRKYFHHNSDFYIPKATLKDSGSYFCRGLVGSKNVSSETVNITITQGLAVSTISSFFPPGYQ
In words: ELISA, GST-FcgR3a.V158 captured by anti-GST antibody. As for the experimental part: The binding of fucosylated and afucosylated variants of hu.Ab5.H13L1 and hu.Ab4.H12L3 to both FcgR3a proteins by ELISA was studied. Briefly, an anti-GST antibody was coated on Nunc Maxisorp plates. GST-FcgR3a.V158 and GST-FcgR3a.F158 were captured at 500 ng/mL. Plates were then washed and then serially diluted anti-CCR8 antibodies starting at 100 ug/mL were incubated on the plate for 1 hour at room temperature. Plates were washed and bound antibody was detected by a HRP-conjugated anti-human IgG secondary antibody. Absorbance at 450 nm was measured by a plate reader. The data were fitted using a 4-parameter logistic curve in Softmax Pro.

Assay [2] has as its target T1, human CCR8. The assay can be described thus: radioligand competition, 125I-labelled IgG versus unlabelled IgG on CHO cells stably expressing human CCR8. As for the experimental part:
(§3) Cell-based affinity measurements were performed using radiolabeled IgGs and CHO cell lines stably expressing human or cyno CCR8 for hu.Ab5.H13L1 and hu.Ab4.H12L3.
(§4) Briefly, stable CHO cells expressing human or cyno CCR8 were seeded in cold binding buffer (Opti-MEM+2% FBS+50 mM HEPES, pH 7.2+0.1% Sodium Azide) at 50,000 cells per well. A fixed concentration of ¹²⁵I-anti-CCR8 radiolabeled using the NEX244 Iodogen method (Perkin Elmer) was mixed with serially diluted anti-CCR8 antibodies starting at 20 nM or 50 nM. The antibody mixture was added to the cells and incubated at room temperature for 12 hours under gentle agitation. The cells and antibodies were then transferred to Millipore multiscreen filter plates. The filter plates were washed 4 times with 250 μL of cold binding buffer and dried for at least 30 minutes and the filters were punched into 5 mL polystyrene tubes. The radioactivity was measured using a Perkin Elmer Wallac Wizard 2470 Gamma Counter set at 1 count per minute with 0.8 counting efficiency. The data were fitted using the heterologous one site-fit Ki competitive binding model in GraphPad Prism.
(Displacement assays read how much labelled ligand stays bound in the presence of the test substance.)

Another assay concerns the target T5, human CXCR4 (human, UniProt P61073 1-352).
T5 construct: whole, on cells; transiently expressed on HEK293 cells
In words: flow cytometry, HEK293 with N-term FLAG-tagged human CXCR4, procedure of FIG. 4.
Description: as §1, §2

Assay [3] addresses T1, human CCR8. In words: radioligand competition on CHO cells stably expressing human CCR8: fixed 125I-anti-CCR8 against serially diluted unlabelled antibody. The method, then: as §3, §4

Usually EC50 stands for the concentration giving half of the maximal effect. Higher therefore signals lower potency in that assay. What is called Kd is the equilibrium constant for the complex coming apart.

T5 sequence (P61073 whole entry): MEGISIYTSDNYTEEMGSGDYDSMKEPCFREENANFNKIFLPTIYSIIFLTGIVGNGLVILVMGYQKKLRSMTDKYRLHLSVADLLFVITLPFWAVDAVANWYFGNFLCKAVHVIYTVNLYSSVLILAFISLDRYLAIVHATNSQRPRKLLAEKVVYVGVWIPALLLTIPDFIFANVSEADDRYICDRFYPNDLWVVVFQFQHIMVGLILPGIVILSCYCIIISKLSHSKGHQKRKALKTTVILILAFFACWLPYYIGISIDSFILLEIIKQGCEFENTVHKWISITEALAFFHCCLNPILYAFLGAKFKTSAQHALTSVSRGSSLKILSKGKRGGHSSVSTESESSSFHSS
T2 sequence (P41597 whole entry): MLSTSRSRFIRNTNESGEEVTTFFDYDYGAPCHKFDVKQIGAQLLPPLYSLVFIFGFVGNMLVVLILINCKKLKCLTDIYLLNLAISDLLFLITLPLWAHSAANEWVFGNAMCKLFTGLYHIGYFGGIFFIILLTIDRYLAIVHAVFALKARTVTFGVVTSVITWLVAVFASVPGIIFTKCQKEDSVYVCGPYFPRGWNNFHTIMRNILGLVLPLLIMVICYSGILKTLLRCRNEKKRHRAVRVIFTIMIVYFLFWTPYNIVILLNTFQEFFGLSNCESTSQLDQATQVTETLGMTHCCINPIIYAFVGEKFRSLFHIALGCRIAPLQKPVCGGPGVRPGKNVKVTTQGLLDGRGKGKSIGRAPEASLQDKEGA

B1: hu.Ab5.H1L1 (antibody, human IgG1, kappa)
heavy: not shown
light: DIQVTQSPSSLSASVGDRVTITCQASENIANALAWYQQKPGKPPKFLIYGASNLASGVPSRFSGSGSGTDFTFTISSLQPEDIATYYCQQAYYGNSFVEGTFGGGTKVEIKRTVAAPSVFIFPPSDEQLKSGTASVVCLLNNFYPREAKVQWKVDNALQSGNSQESVTEQDSKDSTYSLSSTLTLSKADYEKHKVYACEVTHQGLSSPVTKSFNRGEC
On to B1, for which the “ADCC EC50, NK-92_F158 effector cells, calcein release” value with human CCR8 [1] is 20 pM. The binding result in the assay with human CCR2 was “no binding (tested: 5 ug/ml)”.

B2: hu.Ab5.H13L1 (antibody, human IgG1, kappa)
heavy: not shown
light: DIQVTQSPSSLSASVGDRVTITCQASENIANALAWYQQKPGKPPKFLIYGASNLASGVPSRFSGSGSGTDFTFTISSLQPEDIATYYCQQAYYGNSFVEGTFGGGTKVEIKRTVAAPSVFIFPPSDEQLKSGTASVVCLLNNFYPREAKVQWKVDNALQSGNSQESVTEQDSKDSTYSLSSTLTLSKADYEKHKVYACEVTHQGLSSPVTKSFNRGEC
notes: fucosylated human IgG1; also called Ab5 variant
B2: the binding result in the assay with human ACKR2 and with human CXCR4 was “no binding (tested: 5 ug/ml)” throughout. This molecule also gave an EC50 in the assay with GST-FcgR3a.V158 of 0.39 µg/mL. Besides, the Kd with human CCR8 [2] worked out at 4 pM. For the same molecule, the “IC50 (read off the curve)” value with human CCR8 [3] was ~50 pM.

B3: hu.Ab4.H1L1 (antibody, human IgG1, kappa)
heavy: not shown
light: DYQMTQSPSSLSASVGDRVTITCQASQSISSYLSWYQQKPGKRPKLLIYKASTLASGVPSRFSGSGSGTDFTLTISSLQPEDFATYYCQQGYTSSNIDNIFGGGTKVEIKRTVAAPSVFIFPPSDEQLKSGTASVVCLLNNFYPREAKVQWKVDNALQSGNSQESVTEQDSKDSTYSLSSTLTLSKADYEKHKVYACEVTHQGLSSPVTKSFNRGEC
notes: also called hu.Ab4.H1Ll
In the case of B3, the “ADCC EC50, NK-92_F158 effector cells, calcein release” value with human CCR8 [1] is 80 pM. Also, the binding result in the assay with human CCR2 is “no binding (tested: 5 ug/ml)”.

B4: hu.Ab4.H12L3 (antibody, human IgG1, kappa)
heavy: not shown
light: DYQMTQSPSSLSASVGDRVTITCQASQSISSYLSWYQQKPGKAPKLLIYKASTLASGVPSRFSGSGSGTDFTLTISSLQPEDFATYYCQQGYTSSNIDNIFGGGTKVEIKRTVAAPSVFIFPPSDEQLKSGTASVVCLLNNFYPREAKVQWKVDNALQSGNSQESVTEQDSKDSTYSLSSTLTLSKADYEKHKVYACEVTHQGLSSPVTKSFNRGEC
notes: fucosylated human IgG1; also called huCCR8-Ab4.H12L3.hIgG1; Ab4 variant
As for B4, the binding result with human ACKR2 and in the assay with human CXCR4 was “no binding (tested: 5 ug/ml)” each time. In the assay with GST-FcgR3a.V158, this molecule yielded a concentration giving a half-maximal response (EC50) of 0.388 µg/mL. For the same molecule, in the assay with human CCR8 [2], the Kd came to 28.4 pM. Further, in the assay with human CCR8 [3], the “IC50 (read off the curve)” value is ~100 pM.
